T1: Apaf-1 polypeptide (Homo sapiens, UniProt O14727)
T1 construct: endogenous in cells; host or cells: 293T
T1 sequence (O14727 1-1248): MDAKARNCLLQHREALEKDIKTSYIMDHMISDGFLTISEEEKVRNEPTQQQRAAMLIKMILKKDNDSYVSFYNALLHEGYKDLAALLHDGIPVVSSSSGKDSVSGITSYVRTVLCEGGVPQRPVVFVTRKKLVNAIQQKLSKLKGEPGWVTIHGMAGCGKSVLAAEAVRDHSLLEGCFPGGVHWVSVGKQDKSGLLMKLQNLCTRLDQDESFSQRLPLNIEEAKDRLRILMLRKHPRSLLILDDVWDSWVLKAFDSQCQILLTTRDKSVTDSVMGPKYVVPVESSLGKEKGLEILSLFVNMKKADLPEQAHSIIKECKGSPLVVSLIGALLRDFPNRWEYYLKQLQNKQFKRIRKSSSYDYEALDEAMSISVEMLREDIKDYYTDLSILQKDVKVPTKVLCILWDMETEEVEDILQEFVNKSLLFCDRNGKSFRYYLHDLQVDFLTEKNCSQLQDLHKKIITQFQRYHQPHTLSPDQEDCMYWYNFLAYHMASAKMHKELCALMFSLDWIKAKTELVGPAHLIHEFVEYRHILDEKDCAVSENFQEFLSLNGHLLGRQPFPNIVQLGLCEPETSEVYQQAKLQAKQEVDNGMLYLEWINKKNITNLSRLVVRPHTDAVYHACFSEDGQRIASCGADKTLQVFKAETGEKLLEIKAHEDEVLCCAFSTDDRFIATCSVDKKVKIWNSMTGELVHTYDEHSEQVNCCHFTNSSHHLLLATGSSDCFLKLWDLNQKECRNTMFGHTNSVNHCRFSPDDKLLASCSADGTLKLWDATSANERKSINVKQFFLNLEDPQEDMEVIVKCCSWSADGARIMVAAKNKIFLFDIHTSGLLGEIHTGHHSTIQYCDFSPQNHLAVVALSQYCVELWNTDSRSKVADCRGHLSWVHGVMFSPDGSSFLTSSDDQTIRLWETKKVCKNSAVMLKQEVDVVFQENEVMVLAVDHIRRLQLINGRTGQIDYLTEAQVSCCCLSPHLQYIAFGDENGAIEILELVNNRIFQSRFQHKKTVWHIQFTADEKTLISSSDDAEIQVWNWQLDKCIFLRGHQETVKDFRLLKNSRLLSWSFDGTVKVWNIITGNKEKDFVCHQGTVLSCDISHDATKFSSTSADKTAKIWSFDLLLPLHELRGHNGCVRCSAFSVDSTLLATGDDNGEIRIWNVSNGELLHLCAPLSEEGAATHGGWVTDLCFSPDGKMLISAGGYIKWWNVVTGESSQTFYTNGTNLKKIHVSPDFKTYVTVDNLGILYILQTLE


Assays:
[1] = test system: caspase-2; caspase-3/7; caspase-6; caspase-8; and caspase-9; assay: Caspase activity with AFC-labeled peptides in lysates of STS-treated astrocytes; format: cell-based; details: for caspase activity (caspase-2, -3/7, -6, -8, -9): STS (500 nm) 24 hours
Procedure: The following experiment was performed to determine whether Bcl2L12 inhibits caspase activation. Briefly, a caspase activation profile was generated using fluorochrome-labeled peptides resembling the ideal cleavage sites for caspases-2 (VDVAF; SEQ ID NO:29), caspases-3/7 (DEVD; SEQ ID NO:27), caspase-6 (VEID; SEQ ID NO:31), caspase-8 (IETD; SEQ ID NO:30), and caspase-9 (LEHD; SEQ ID NO:28). Two confluent 15 cm dishes of astrocytes (pBabe or Bcl2L12-V5 transfected) were left untreated or treated with STS (500 nm) for 24 hours and lysed in a lysis buffer containing 1% Trition X-100. The lysed cells were then spun for 15 minutes at 14,000 rpm at 4° C. to obtain a postnuclear supernatant. The supernatants (standardized to 20 mg of protein) were incubated with 40 μM of AFC labeled peptide substrate for 1 hour at 37° C. The samples were read in a fluorescence plate reader, and the specific RFUs were calculated. In the presence of active caspases, the fluorogenic group AFC is released from the peptide, and its fluorescence can be quantified using a plate reader.
The mechanism of action of EGFR*, in contrast to Bcl2L12, stems from the activation of upstream survival pathways that converge to inhibit cytochrome c redistribution and subsequent caspase-9 processing (FIG. 8B), as reported previously (Nagane et al., Proc Natl Acad Sci USA 95:5724-9(1998)). In addition, the ability of Bcl2L12 polypeptide to inhibit effector caspase function is reflected in decreased levels of the caspase-9 p37 as a result of caspase-3-mediated cleavage intermediate (FIG. 8A, 16 hours; Fujita et al., Cell Death Differ. 8:335-44 (2001)). […] As a consequence of a caspase-3-mediated feedback mechanism (Fujita et al., Cell Death Differ. 8:335-44 (2001); Slee et al., J Cell Biol. 144, 281-92 (1999)), caspase-9 processing in later phases of apoptosis progression was enhanced (FIG. 8C, 16 hours). […] Caspase activities were determined fluorometrically using a fluorescence plate reader. […]

[2] = target: T1, Apaf-1 polypeptide; assay: Co-immunoprecipitation of endogenous Apaf-1 in 293T cells; format: binding; details: anti-V5 immunoprecipitation from 293T cells
Procedure: To confirm this interaction, 293T cells were used to test the physical interaction between Apaf-1 and Bcl2L12 polypeptides in vivo. […] To test the association between Apaf-1 and Bcl2L12 polypeptides in vivo, Bcl2L12-V5 polypeptides were expressed in 293T cells and immunoprecipitated with an anti-V5 antibody. The amount of co-immunoprecipitated endogenous Apaf-1 polypeptide then was determined by Western blot analysis.
To assess whether the BH2 domain is necessary for Apaf-1 binding, Bcl2L12-V5-ΔBH2 polypeptides were immunoprecipitated from 293T cells, and co-immunoprecipitated Apaf-1 was quantified as described.

Molecule | caspase activity (caspase-2, -3/7, -6, -8, -9) [1] | association with Apaf-1 polypeptide [2] | DEVDase activity ([1]; 0.5 μM STS, pBabe about 8500 RFUs)
Bcl2L12-V5-ΔBH2: V5 tagged mutant lacking amino acid residues 311-334 (BH2 domain) of human Bcl2L12; sequence 1-310 (protein, left off: small tags and cut ends) MGRPAGLFPPLCPFLGFRPEACWERHMQIERAPSVPPFLRWAGYRPGPVRRRGKVELIKFVRVQWRRPQVEWRRRRWGPGPGASMAGSEELGLREDTLRVLAAFLRRGEAAGSPVPTPPRSPAQEEPTDFLSRLRRCLPCSLGRGAAPSESPRPCSLPIRPCYGLEPGPATPDFYALVAQRLEQLVQEQLKSPPSPELQGPPSTEKEAILRRLVALLEEEAEVINQKLASDPALRSKLVRLSSDSFARLVELFCSRDDSSRPSRACPGPPPPSPEPLARLALAMELSRRVAGLGGTLAGLSVEHVHSFTP | even more pronounced inhibition | bound comparable levels of Apaf-1 polypeptide | –
Bcl2L12-V5: Bcl2L12 polypeptide having the V5 epitope tag, ectopically expressed from pBabe-Bcl2L12-V5 vector; human amino acid sequence 1-334 (protein, left off: small tags and cut ends) MGRPAGLFPPLCPFLGFRPEACWERHMQIERAPSVPPFLRWAGYRPGPVRRRGKVELIKFVRVQWRRPQVEWRRRRWGPGPGASMAGSEELGLREDTLRVLAAFLRRGEAAGSPVPTPPRSPAQEEPTDFLSRLRRCLPCSLGRGAAPSESPRPCSLPIRPCYGLEPGPATPDFYALVAQRLEQLVQEQLKSPPSPELQGPPSTEKEAILRRLVALLEEEAEVINQKLASDPALRSKLVRLSSDSFARLVELFCSRDDSSRPSRACPGPPPPSPEPLARLALAMELSRRVAGLGGTLAGLSVEHVHSFTPWIQAHGGWEGILAVSPVDLNLPLD | significantly impaired | found to be associated | about 3500 RFUs

Source: US7595158B2, “Bcl2L12 polypeptide activators and inhibitors” (Dana-Farber Cancer Institute, Inc., priority 2003, dated 2009)
